From article PMC2613574 come the findings set out here.

Assay [1] concerns the target FNfn10 wild-type N fragment displayed on the yeast surface (Aga2p fusion, FLAG tag) (human). The assay can be described thus: flow cytometry on cells. On the technique in general: Flow cytometry measures light scatter and fluorescence of single cells or particles in a stream.
Assay [2] addresses FNfn10 ND7N fragment displayed on the yeast surface (Aga2p fusion, FLAG tag) (human). The assay can be described thus: flow cytometry on cells.

On to “FNfn10 C fragment, wild type, co-secreted in yeast (V5 tag) (domain or fragment)”, for which, in assay [1], the log(B/E ratio) amounted to 1.3. Broadly, the Kd is a measure of binding affinity in units of concentration. Low readings indicate tighter binding, high ones weaker binding. In assay [2], “ubiquitin fusion of the FNfn10 C fragment with the V5 tag (domain or fragment)” displayed a Kd of 25.3 nM.
